# Values joined by “and” are separate entries in the source; they are usually repeats but may differ in a detail not shown here. Identical values can stand only once.
# B1: huC1H1-V2: humanized C1H1 anti-CD40 antibody, VH SEQ ID NO: 20 X1=S, VL SEQ ID NO: 24 X1=K X2=F, human IgG2/κ (antibody, V domains shown)
# VH: EVQLVESGGGLVKPGGSLRLSCAASGFTFSNYGISWVRQAPGKGLEWVXSISSGGDNTYYPDNVKGRFTISRDNAKNSLYLQMNSLRAEDTAVYYCARAGEKAMDYWGQGTLVTVSS
# VL: EIVLTQSPATLSLSPGERATLSCRASQTINNNLHWYQQKPGQAPRLLIXYASQSISGIPARFSGSGSGTDFTLTISSLEPEDFAVYXCQQFSSWPLTFGGGTKVEIK
# modifications: not fully specified; variable positions X1=S; VL X1=K X2=F; IgG2/kappa constant; VH of huC1H1-V1 to huC1H1-V4; VARIANT 49 X can be A or S; VL of huC1H1-V1 to huC1H1-V4; VARIANT 49 X can be K or Y; VARIANT 87 X can be F or Y
# How the values were obtained:
# [1] = system: mouse colon carcinoma MC38 cells; assay: In vivo anti-tumor efficacy, colon carcinoma MC38 xenograft model; conditions: for Tumor volume on day 0: baseline at grouping; for Tumor volume on day 0 / Tumor volume on day 14: mean ± standard error; for T/C: TRTV/CRTV, day 14 vs solvent; for TGI: day 14
# Method: The in vivo anti-tumor activity of antibody huC1H1-V2 was further determined in humanized CD40 transgenic mice (also referred to as hCD40 mice). Briefly, 1×10^6 mouse colon carcinoma MC38 cells (Shanghai Lanli Biotech, LTD., CO.) were injected subcutaneously on the right back of hCD40 mice. The tumor volume was measured using an electronic vernier caliper and calculated according to the formula (length×width^2)/2. When the mean tumor volume reached about 100 mm^3, 18 tumor-bearing mice were selected and randomly divided into 3 groups (6 mice per group), with the date of grouping designated as day 0. According to the administration regimen shown in Table 8, the mice were intravenously administered with the solvent (phosphate buffered saline, or PBS) or antibody huC1H1-V2 via tail veins since day 1.
# [2] = system: human B-cell lymphoma Ramos cells; assay: Efficacy of anti-CD40 antibody and anlotinib, Ramos subcutaneous xenograft mouse model; type: in vivo
# Method: Human B-cell lymphoma Ramos cells (purchased from the Cell Bank of the Chinese Academy of Sciences) were cultured in an RPMI1640 medium containing 10% of fetal bovine serum and penicillin-streptomycin. The cells were inoculated in a 37° C./5% CO2 incubator until the logarithmic growth phase and collected for grafting.
# The mice used in this study were NOD-Scid mice (purchased from Shanghai Lingchang Biotechnology Co., Ltd.) aged about 6 weeks and bred in specific pathogen-free conditions in 12/12-hour light/dark cycles. The health status of the animals was monitored daily.
# Each mouse was inoculated subcutaneously with 1×10^7 Ramos cells. When the tumor grew to 80-100 mm^3, the mice were divided into groups of 10 according to the tumor volume. The administration regimen is shown in Table 10, with the first dosing day designated as DO. Antibody huC1H1-V2 and IgG2 (Biointron, Cat. No. B107803) were both formulated to desired concentrations with normal saline, and anlotinib dihydrochloride was formulated at desired concentrations with distilled water. At the end of study (D14), the animals were sacrificed by CO2 anesthesia and dissected to give the tumors. The tumors were photographed.
# The tumor diameters were measured twice weekly with a vernier caliper. Tumor volume (V)=½×a×b^2, wherein a and b denote length and width, respectively; T/C (%)=(T−T0)/(C−C0)×100, wherein T and C refer to the tumor volumes of the treatment group and the IgG2 control group on day 14, respectively, and TO and C0 refer to the tumor volumes of the treatment group and IgG2 control group on day 0, respectively; the tumor growth inhibition % (TGI %)=100−T/C (%). When the tumor regressed, the tumor growth inhibition % (TGI %)=100−(T−T0)/T0×100. If the tumor volume was smaller than the initial volume, i.e., T<T0 or C<C0, the outcome was defined as partial regression (PR); if the tumors completely disappeared, i.e., the outcome was defined as complete regression (CR).
molecule,measurement,setting,value
B1,Tumor volume on day 0,[1]; 3 mg/kg i.v. Q2D × 7 doses,111 ± 5 mm^3
same,Tumor volume on day 14,[1]; 3 mg/kg i.v. Q2D × 7 doses,1169 mm^3 and 1169 ± 217** mm^3
same,T/C,[1]; 3 mg/kg i.v. Q2D,36%
same,TGI,[1]; 3 mg/kg i.v. Q2D,64%
same,Tumor volume on day 0,[1]; 10 mg/kg i.v. Q2D × 7 doses,113 ± 8 mm^3
same,Tumor volume on day 14,[1]; 10 mg/kg i.v. Q2D × 7 doses,1446 mm^3 and 1446 ± 467* mm^3
same,T/C,[1]; 10 mg/kg i.v. Q2D,44%
same,TGI,[1]; 10 mg/kg i.v. Q2D,56%
same,Tolerability (weight loss or any symptoms),"[1]; 3 and 10 mg/kg i.v. Q2D × 7 doses, tumor-bearing mice",well tolerated
same,Mean tumor volume (mean ± SD) D 0,"[2]; baseline, huC1H1-V2 0.5 mg/kg i.p. once every 2 days × 8, anlotinib dihydrochloride 1 mg/kg intragastric daily × 15",89.3 ± 0.8 mm^3
same,Mean tumor volume (mean ± SD) D 14,"[2]; huC1H1-V2 0.5 mg/kg i.p. once every 2 days × 8, anlotinib dihydrochloride 1 mg/kg intragastric daily × 15",1546.7 ± 198.5 mm^3
same,TGI D 14 (tumor growth inhibition rate),"[2]; huC1H1-V2 0.5 mg/kg i.p., anlotinib dihydrochloride 1 mg/kg intragastric",58%
same,Tolerability (symptoms such as weight loss),"[2]; huC1H1-V2 0.5 mg/kg i.p., anlotinib dihydrochloride 1 mg/kg intragastric, tumor-bearing mice",well tolerated
same,T/C D 14,"[2]; vs IgG2 group, huC1H1-V2 0.5 mg/kg i.p., anlotinib dihydrochloride 1 mg/kg intragastric",42%
